Tests used:
Format in all cases: in vivo, human
A2780 cells = assay: A2780 ovarian xenograft (intraperitoneal) tumor growth inhibition; details: SCID mice (native murine Dll4); REGN421 2.5 mg/kg 1x/week, mDll4Ab1 5 mg/kg 1x/week, VEGF-Trap 10 mg/kg 2x/week
Description: (§1) Ovarian tumor xenograft cells were implanted into humanized Dll4 SCID mice or vendor SCID mice (i.e., SCID mice expressing native murine Dll4). After implantation, mice were treated with REGN421 (anti-human Dll4 antibody, binds to human Dll4), mDll4Ab1 (anti-murine Dll4 antibody, binds to murine Dll4), or a human Fc domain control protein. In one study, mice were treated with VEGF-Trap, mDll4Ab1 or VEGF-Trap plus mDll4Ab1. TOV-112D cells (5×10^6) were implanted subcutaneously into the right flank of humanized Dll4 (n=4) or vendor SCID mice (n=7). Treatment with REGN421 (2.5 mg/kg, 1×/week) or mDll4Ab1 (5 mg/kg, 1×/week) vs. hFc control was initiated one week after tumor cell implantation. Animals were treated for 2 to 3 weeks. A2780 cells (2×10^6) were implanted intraperitoneally into humanized Dll4 or vendor SCID mice (n=4-5). Treatment with REGN421 (2.5 mg/kg, 1×/week) or mDll4Ab1 (5 mg/kg, 1×/week) vs. hFc control was initiated one week after tumor cell implantation. For the A2780 combination study, simultaneous treatment with mDll4Ab1 (5 mg/kg, 1×/week) and VEGF-Trap (10 mg/kg, 2×/week) was initiated one week after tumor cell implantation. A VEGF-Trap single treatment arm was included in this study. Animals bearing A2780 tumors were treated for 4-5 weeks. SKOV-3 cells (5×10^6) in matrigel were implanted subcutaneously and tumor-bearing animals (n=10) were dosed with REGN421 (2.5 mg/kg) and mDll4Ab1 (5 mg/kg) once weekly. OVCAR-3 cells (1×10^7) were implanted subcutaneously into the right flank of vendor SCID mice (n=7). Treatment with mDll4Ab1 (5 mg/kg 1×/week) vs. hFc control was initiated 66 days after tumor cell implantation. Animals were treated for a total of 5 weeks. Tumor growth inhibition (TGI) was measured as detailed above.

OVCAR-3 cells = assay: OVCAR-3 ovarian xenograft (subcutaneous) tumor growth inhibition; details: SCID mice; mDll4Ab1 5 mg/kg 1x/week, 5 weeks
Description: as §1, with “SKOV-3 cells (5×10^6) in matrigel were implanted subcutaneously and tumor-bearing animals (n=10) were dosed with REGN421 (2.5 mg/kg) and mDll4Ab1 (5 mg/kg) once weekly. OVCAR-3 cells (1×10^7) were implanted subcutaneously into the right flank of vendor SCID mice (n=7). Treatment with mDll4Ab1 (5 mg/kg 1×/week) vs. hFc control was initiated 66 days after tumor cell implantation. Animals were treated for a total of 5 weeks.” left out

SKOV-3 cells = assay: SKOV-3 ovarian xenograft (subcutaneous) tumor growth inhibition; details: SCID mice; mDll4Ab1 5 mg/kg once weekly
Description: as §1, with “SKOV-3 cells (5×10^6) in matrigel were implanted subcutaneously and tumor-bearing animals (n=10) were dosed with REGN421 (2.5 mg/kg) and mDll4Ab1 (5 mg/kg) once weekly. OVCAR-3 cells (1×10^7) were implanted subcutaneously into the right flank of vendor SCID mice (n=7). Treatment with mDll4Ab1 (5 mg/kg 1×/week) vs. hFc control was initiated 66 days after tumor cell implantation. Animals were treated for a total of 5 weeks.” left out

[1] = system: TOV-112D and SKOV-3 ovarian tumor xenografts; assay: Tumor perfusion in ovarian tumor xenografts; details: data not shown
Description: (§2) Quantitation of tumor microvascular density was evaluated immunohistochemically using CD31 staining. Native Dll4 SCID mice with TOV-112D and SKOV-3 ovarian tumor xenografts were treated with the anti-murine Dll4 antibody mDll4Ab1 or hFc (control). […] A reduction of tumor perfusion was also seen (data not shown).

TOV-112D cells = assay: TOV-112D ovarian xenograft (subcutaneous) tumor growth inhibition; details: SCID mice (native murine Dll4); REGN421 2.5 mg/kg or mDll4Ab1 5 mg/kg 1x/week
Description: as §1

[2] = system: TOV-112D ovarian tumor xenografts; assay: Tumor microvascular density by CD31 staining, TOV-112D xenograft; details: native Dll4 SCID mice
Description: as §2

[3] = system: SKOV-3 ovarian tumor xenografts; assay: Tumor microvascular density by CD31 staining, SKOV-3 xenograft; details: native Dll4 SCID mice
Description: as §2

B1: mDII4Ab1: anti-murine Dll4 antibody with LCVR and HCVR of SEQ ID NO:122 and 123 (antibody)
heavy: EVQLVESGGDLVKPGGSLKLSCTASGFTFSNYGMSWVRQTPDKRLGWVATISTAGSYTYYPDSVKGRFTISRDNAKNTLYLQMSSLKSEDTAMYYCARHPGVADFDYWGQGTTLTVSSAKTTAPSVYPLAPVCGDTTGSSVTLGCLVKGYFPEPVTLTWNSGSLSSGVHTFPAVLQSDLYTLSSSVTVTSSTWPSQSITCNVAHPASSTKVDKKIEPRGPTIKPCPPCKCPAPNLLGGPSVFIFPPKIKDVLMISLSPIVTCVVVDVSEDDPDVQISWFVNNVEVHTAQTQTHREDYNSTLRVVSALPIQHQDWMSGKEFKCKVNNKDLPAPIERTISKPKGSVRAPQVYVLPPPEEEMTKKQVTLTCMVTDFMPEDIYVEWTNNGKTELNYKNTEPVLDSDGSYFMYSKLRVEKKNWVERNSYSCSVVHEGLHNHHTTKSFSRTPGK
light: DIVMTQSHKFMSISEGDRVSITCKARQDVTTSVAWYQQKPGQSPKLLIYWASTRHTGVPDRFTGSGSGTDFTLTISSVQAEDLALYYCQQHYSTPYTFGGGTKLEIKRADAAPTVSIFPPSSEQLTSGGASVVCFLNNFYPKDINVKWKIDGSERQNGVLNSWTDQDSKDSTYSMSSTLTLTKDEYERHNSYTCEATHKTSTSPIVKSFNRGEC
With B1 the “% TGI” value (A2780 cells) was 70%, the “% TGI” value (OVCAR-3 cells) was 84% and the “% TGI” value (SKOV-3 cells) was 64%. The tumor perfusion [1] was “reduction”, the “% TGI” value (TOV-112D cells) was 74% and the “Increase in Vessel Area vs. hFc (%)” value [2] was 276.5%. The “Vessel Area (%), percent vessel fraction over total tumor area” value [2] was 5.53%, the “Increase in Vessel Area vs. hFc (%)” value [3] was 146.8% and the “Vessel Area (%), percent vessel fraction over total tumor area” value [3] was 4.36%.
